From PMC11217727

How the values were obtained:
[1] = molecular target: FGFR3 S249C stably expressed in FaDu head and neck cancer cells (human) (UniProt P22607); assay: nonreducing SDS-PAGE with Western blot
[2] = molecular target: FGFR3 S249C stably expressed in BaF3 cells (human) (UniProt P22607); assay: nonreducing SDS-PAGE with Western blot

FGFR3 S249C stably expressed in FaDu head and neck cancer cells (from UniProt P22607 23-806) (receptor)
percent of FGFR3 present as dimer [1]: 70%

FGFR3 S249C stably expressed in BaF3 cells (from UniProt P22607 23-806) (receptor)
percent of FGFR3 present as dimer [2]: 6%
